From US20250092109A1 (XILIO DEVELOPMENT, published 2025)

B14: IL-2 V2 (ligand)
chain: APTSSSTKKTQLQLEHLLLDLQMILNGINNYKNPKLTAMLTAKFAMPKKATELKHLQCLEEALKPLEEVLNLAQSKNFHLRPRDLISNINVIVLELKGSETTFMCEYADETATIVEFLNRWITFAQSIISTLT

Legend:
IL-2 [1] = target: T1, IL-2 (UniProt P60568 21-153); assay: SPR
T1 construct: also called interleukin 2
Target sequence in this assay (P60568 21-153 limits assumed): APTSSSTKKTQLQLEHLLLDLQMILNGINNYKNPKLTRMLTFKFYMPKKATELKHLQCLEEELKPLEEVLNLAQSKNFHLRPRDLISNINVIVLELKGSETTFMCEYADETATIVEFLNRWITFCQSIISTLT

IL-2 V2 = target: B14; assay: cell-based or functional assay
IL-2 V3 = IL-2 V3 (Homo sapiens (Human), UniProt P60568 21-153); assay: cell-based or functional assay
IL-2 [2] = target: T1, IL-2; assay: SPR, criterion of kinetic Group 2
CD25 on CD25+ cells = target: T2, CD25 on CD25+ cells (UniProt P01589 22-272, limits assumed); assay: cell-based or functional assay
T2 sequence (looked up): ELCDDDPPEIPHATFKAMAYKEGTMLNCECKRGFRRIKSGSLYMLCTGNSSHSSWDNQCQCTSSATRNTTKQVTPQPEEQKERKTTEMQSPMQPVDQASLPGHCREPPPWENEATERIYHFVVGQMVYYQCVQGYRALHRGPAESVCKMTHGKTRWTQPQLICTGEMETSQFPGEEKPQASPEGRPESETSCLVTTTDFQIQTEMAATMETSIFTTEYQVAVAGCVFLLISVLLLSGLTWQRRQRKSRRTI

B1: VHH1 (VHH)
VHH: EVQLVESGGGLVQPGGSLRLSCAASGSIFSINVMGWYRQAPGKQRELVAAISSGGSTNYADSVKGRFTISRDNAKNTVYLQMNSLKPEDTAVYYCMYASSWYEDETDYWGQGTQVTVSS
notes: In the functional rows it stood as the masking moiety of constructs C7, C2, C4 and C6, fused to an Fc chain; also called Parental; parental anti-IL-2
Kd (IL-2 [1]): 0.0601 nM | koff (IL-2 [1]): 3.28e-05 s⁻¹ | kon (IL-2 [1]): 546000 M⁻¹ s⁻¹ | EC50 (pM) of intact construct C7, HEK Blue cell-based reporter assay (IL-2 V2): 3390 pM | Fold Change (Intact/Cleaved), construct C7, HEK Blue assay (IL-2 V2): 112 fold | Fold Change (Intact/Parental), construct C7, HEK Blue assay (IL-2 V2): 101 fold | Average EC50 (nM) with MMP, construct C2, pSTAT5 on CD8+ T cells of hPBMCs (IL-2 V3): 0.23 nM | Average EC50 (nM) with MMP, construct C4, pSTAT5 on CD8+ T cells of hPBMCs (IL-2 V3): 0.26 nM | Average EC50 (nM) with MMP, construct C6, pSTAT5 on CD8+ T cells of hPBMCs (IL-2 V3): 0.28 nM | Average EC50 (nM) without MMP, construct C2, pSTAT5 on CD8+ T cells of hPBMCs (IL-2 V3): 137 nM | Average EC50 (nM) without MMP, construct C4, pSTAT5 on CD8+ T cells of hPBMCs (IL-2 V3): 136 nM | Average EC50 (nM) without MMP, construct C6, pSTAT5 on CD8+ T cells of hPBMCs (IL-2 V3): 470 nM | Fold Change (Cleaved/Unmasked Control), construct C2 (IL-2 V3): 4.2 fold | Fold Change (Cleaved/Unmasked Control), construct C4 (IL-2 V3): 4.7 fold | Fold Change (Cleaved/Unmasked Control), construct C6 (IL-2 V3): 5.1 fold | Fold Masking (Uncleaved/Unmasked Control), construct C2 (IL-2 V3): 2490 fold | Fold Masking (Uncleaved/Unmasked Control), construct C4 (IL-2 V3): 2470 fold | Fold Masking (Uncleaved/Unmasked Control), construct C6 (IL-2 V3): 8550 fold

B2: VHH46 (VHH)
VHH: EVQLVESGGGLVQPGGSLRLSCAASGSIFSINVMGWYRQAPGKQRELVAAISSGGSTNYADSVKGRFTISRDNAKNTVYLQMNSLKPEDTAVYYCMYASSWYEDETDYWGQGTQVTVSS
Average EC50 (nM) with MMP, construct C5, pSTAT5 on CD8+ T cells of hPBMCs (IL-2 V3): 0.25 nM | Average EC50 (nM) without MMP, construct C5, pSTAT5 on CD8+ T cells of hPBMCs (IL-2 V3): 411 nM | Fold Change (Cleaved/Unmasked Control), construct C5 (IL-2 V3): 4.5 fold | Fold Masking (Uncleaved/Unmasked Control), construct C5 (IL-2 V3): 7470 fold

B3: VHH26 (VHH)
VHH: EVQLVESGGGLVQPGGSLRLSCAASGSIFSSNVMGWYRQAPGKQRELVAAISSGGSTNYADSVKGRFTISRDNAKNTVYLQMNSLKPEDTAVYYCAYASSYYEDETDYWGQGTQVTVSS
notes: In the functional rows it stood as the masking moiety of construct C10; also called I31S, M96A, W101Y
Kd (IL-2 [1]): 1.35 nM | koff (IL-2 [1]): 0.00427 s⁻¹ | kon (IL-2 [1]): 3.15e+06 M⁻¹ s⁻¹ | EC50 (pM) of intact construct C10, HEK Blue cell-based reporter assay (IL-2 V2): 3970 pM | Fold Change (Intact/Cleaved), construct C10, HEK Blue assay (IL-2 V2): 202 fold | Fold Change (Intact/Parental), construct C10, HEK Blue assay (IL-2 V2): 118 fold | kd relative to VHH1 kd (IL-2 [2]): > 6 fold of VHH1 kd

B4: VHH6 (VHH)
VHH: EVQLVESGGGLVQPGGSLRLSCAASGSIFSINVMGWYRQAPGKGRELVAAISSGGSTNYADSVKGRFTISRDNAKNTVYLQMNSLKPEDTAVYYCMYASSWYEDETDYWGQGTQVTVSS
notes: In the functional rows it stood as the masking moiety of construct C8; also called Q44G
Kd (IL-2 [1]): 0.00457 nM | koff (IL-2 [1]): 2.18e-06 s⁻¹ | kon (IL-2 [1]): 476000 M⁻¹ s⁻¹ | EC50 (pM) of intact construct C8, HEK Blue cell-based reporter assay (IL-2 V2): 4270 pM | Fold Change (Intact/Cleaved), construct C8, HEK Blue assay (IL-2 V2): 176 fold | Fold Change (Intact/Parental), construct C8, HEK Blue assay (IL-2 V2): 127 fold

B5: VHH21 (VHH)
VHH: EVQLVESGGGLVQPGGSLRLSCAASGSIFSSNVMGWYRQAPGKQRELVAAISSGGSTNYADSVKGRFTISRDNAKNTVYLQMNSLKPEDTAVYYCAYASSFYEDETDYWGQGTQVTVSS
notes: also called I31S, M96A, W101F
kd relative to VHH1 kd (IL-2 [2]): > 6 fold of VHH1 kd

B6: VHH5 (VHH)
VHH: EVQLVESGGGLVQPGGSLRLSCAASGSIFSINVMGWYRQAPGKQRELVAAISSGGSTNYADSVKGRFTISRDNAKNTVYLQMNSLKPEDTAVYYCAYASSWYEDETDYWGQGTQVTVSS
notes: also called M96A
kd relative to VHH1 kd (IL-2 [2]): > 6 fold of VHH1 kd

B7: VHH12 (VHH)
VHH: EVQLVESGGGLVQPGGSLRLSCAASGSIFSINVMGWYRQAPGKGRELVAAISSGGSTNYADSVKGRFTISRDNAKNTVYLQMNSLKPEDTAVYYCAYASSYYEDETDYWGQGTQVTVSS
notes: In the functional rows it stood as the masking moiety of constructs C13 and C1; also called Q44G, M96A, W101Y
Kd (IL-2 [1]): 12.7 nM | koff (IL-2 [1]): 3.97 s⁻¹ | EC50 (pM) of intact construct C13, HEK Blue cell-based reporter assay (IL-2 V2): 3130 pM | Fold Change (Intact/Cleaved), construct C13, HEK Blue assay (IL-2 V2): 158 fold | Fold Change (Intact/Parental), construct C13, HEK Blue assay (IL-2 V2): 93.1 fold | Average EC50 (nM) with MMP, construct C1, pSTAT5 on CD8+ T cells of hPBMCs (IL-2 V3): 0.051 nM | Average EC50 (nM) without MMP, construct C1, pSTAT5 on CD8+ T cells of hPBMCs (IL-2 V3): 28.1 nM | Fold Change (Cleaved/Unmasked Control), construct C1 (IL-2 V3): 0.9 fold | Fold Masking (Uncleaved/Unmasked Control), construct C1 (IL-2 V3): 511 fold

B8: VHH7 (VHH)
VHH: EVQLVESGGGLVQPGGSLRLSCAASGSIFSINVMGWYRQAPGKGLELVAAISSGGSTNYADSVKGRFTISRDNAKNTVYLQMNSLKPEDTAVYYCMYASSWYEDETDYWGQGTQVTVSS
notes: In the functional rows it stood as the masking moiety of construct C9; also called Q44G, R45L
Kd (IL-2 [1]): 0.187 nM | koff (IL-2 [1]): 0.000111 s⁻¹ | kon (IL-2 [1]): 595000 M⁻¹ s⁻¹ | EC50 (pM) of intact construct C9, HEK Blue cell-based reporter assay (IL-2 V2): 6240 pM | Fold Change (Intact/Cleaved), construct C9, HEK Blue assay (IL-2 V2): 201 fold | Fold Change (Intact/Parental), construct C9, HEK Blue assay (IL-2 V2): 186 fold

B9: VHH9 (VHH)
VHH: EVQLVESGGGLVQPGGSLRLSCAASGSIFSINVMGWYRQAPGKGRELVAAISSGGSTNYADSVKGRFTISRDNAKNTVYLQMNSLKPEDTAVYYCAYASSFYEDETDYWGQGTQVTVSS
notes: In the functional rows it stood as the masking moiety of construct C12; also called Q44G, M96A, W101F
Kd (IL-2 [1]): 10.9 nM | EC50 (pM) of intact construct C12, HEK Blue cell-based reporter assay (IL-2 V2): 4140 pM | Fold Change (Intact/Cleaved), construct C12, HEK Blue assay (IL-2 V2): 180 fold | Fold Change (Intact/Parental), construct C12, HEK Blue assay (IL-2 V2): 123 fold

B10: VHH31 (VHH)
VHH: EVQLVESGGGLVQPGGSLRLSCAASGSIFSSNVMGWYRQAPGKGLELVAAISSGGSTNYADSVKGRFTISRDNAKNTVYLQMNSLKPEDTAVYYCAYASSFYEDETDYWGQGTQVTVSS
notes: also called I31S, Q44G, R45L, M96A, W101F
kd relative to VHH1 kd (IL-2 [2]): > 6 fold of VHH1 kd

B11: VHH36 (VHH)
VHH: EVQLVESGGGLVQPGGSLRLSCAASGSIFSSNVMGWYRQAPGKGLELVAAISSGGSTNYADSVKGRFTISRDNAKNTVYLQMNSLKPEDTAVYYCAYASSYYEDETDYWGQGTQVTVSS
notes: In the functional rows it stood as the masking moiety of construct C11; also called I31S, Q44G, R45L, M96A, W101Y
Kd (IL-2 [1]): 3.99 nM | koff (IL-2 [1]): 0.00237 s⁻¹ | kon (IL-2 [1]): 594000 M⁻¹ s⁻¹ | EC50 (pM) of intact construct C11, HEK Blue cell-based reporter assay (IL-2 V2): 2860 pM | Fold Change (Intact/Cleaved), construct C11, HEK Blue assay (IL-2 V2): 118 fold | Fold Change (Intact/Parental), construct C11, HEK Blue assay (IL-2 V2): 84.9 fold | kd relative to VHH1 kd (IL-2 [2]): > 6 fold of VHH1 kd

B12: VHH40 (VHH)
VHH: EVQLVESGGGLVQPGGSLRLSCAASGSIFSINVMGWYRQAPGKQRELVAAISSGGSTNYADSVKGRFTISRDNAKNTVYLQMNSLKPEDTAVYYCMYASSWYEDETDYRGQGTLVTVSS
notes: also called W109R, Q114L
kd relative to VHH1 kd (IL-2 [2]): > 6 fold of VHH1 kd

B13: IL-2 V7 (ligand)
chain: APTSSSTKKTQLQLEHLLLDLQMILNGINNYKNPKLTRMLTSKFYMPKKATELKHLQCLEESLKPLEEVLNLAQSKNFHLRPRDLISNINVIVLELKGSETTFMCEYADETATIVEFLNRWITFAQSIISTLT
EC50 (read off the curve), %pSTAT5+ of CD4+FoxP3+CD25+ cells (CD25 on CD25+ cells): ~3000 pM

B14
EC50 (read off the curve), %pSTAT5+ of CD4+FoxP3+CD25+ cells (CD25 on CD25+ cells): ~4000 pM
